± gives the standard deviation of the averaged measurements.
Legend:
[1] = tested on: MCF7; test: percentage of EdU-negative (G0-arrested) nuclei per well, 72 h; higher = more G0 arrest; conditions: reference: sequence is the full UniProt precursor, the tested protein was the secreted form or ectodomain
[2] = tested on: hTERT-HMEC; test: as above; conditions: reference: sequence is the full UniProt precursor, the tested protein was the secreted form or ectodomain
[3] = protein concentration 0.01075 µM
[4] = protein concentration 0.1075 µM
[5] = protein concentration 0.0225 µM
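Also: secreted proteins added to cultured cells, EdU pulse at the end, nuclei found by Hoechst imaging, EdU status from nuclear versus surrounding ring intensity ratio, PBS as neutral control.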

Row | Sequence | percentage of EdU-negative [1, 5] [%] | percentage of EdU-negative ([1]; protein concentration 0.225 µM) [%] | percentage of EdU-negative [2, 5] [%] | percentage of EdU-negative ([2]; protein concentration 0.225 µM) [%] | further results
1 | MVPRIFAPAYVSVCLLLLCPREVIAPAGSEPWLCQPAPRCGDKIYNPLEQCCYNDAIVSLSETRQCGPPCTFWPCFELCCLDSFGLTNDFVVKLKVQGVNSQCHSSPISSKCESRRRFP [Q6UWQ7] | – | – | – | – | percentage of EdU-negative [1, 3]: 24.7 ± 0.71%; percentage of EdU-negative [1, 4]: 25.6 ± 1.1%; percentage of EdU-negative [2, 3]: 5.54 ± 1.2%; percentage of EdU-negative [2, 4]: 6.18 ± 1.3%
2 | MRNSYRFLASSLSVVVSLLLIPEDVCEKIIGGNEVTPHSRPYMVLLSLDRKTICAGALIAKDWVLTAAHCNLNKRSQVILGAHSITREEPTKQIMLVKKEFPYPCYDPATREGDLKLLQLMEKAKINKYVTILHLPKKGDDVKPGTMCQVAGWGRTHNSASWSDTLREVNITIIDRKVCNDRNHYNFNPVIGMNMVCAGSLRGGRDSCNGDSGSPLLCEGVFRGVTSFGLENKCGDPRGPGVYILLSKKHLNWIIMTIKGAV | 27.7 ± 2.1 | 30.8 ± 3.2 | 5.3 ± 0.55 | 5.96 ± 1.8 | –
3 | MKAWGTVVVTLATLMVVTVDAKIYERCELAARLERAGLNGYKGYGVGDWLCMAHYESGFDTAFVDHNPDGSSEYGIFQLNSAWWCDNGITPTKNLCHMDCHDLLNRHILDDIRCAKQIVSSQNGLSAWTSWRLHCSGHDLSEWLKGCDMHVKIDPKIHP [Q96QH8] | 25.8 ± 1.2 | 25.03 ± 0.22 | 6.28 ± 1.5 | 7.91 ± 0.26 | –
4 | MDYPTLLLALLHVYRALCEEVLWHTSVPFAENMSLECVYPSMGILTQVEWFKIGTQQDSIAIFSPTHGMVIRKPYAERVYFLNSTMASNNMTLFFRNASEDDVGYYSCSLYTYPQGTWQKVIQVVQSDSFEAAVPSNSHIVSEPGKNVTLTCQPQMTWPVQAVRWEKIQPRQIDLLTYCNLVHGRNFTSKFPRQIVSNCSHGRWSVIVIPDVTVSDSGLYRCYLQASAGENETFVMRLTVAEGKTDNQYTLFVAGGTVLLLLFVISITTIIVIFLNRRRRRERRDLFTESWDTQKAPNNYRSPISTSQPTNQSMDDTREDIYVNYPTFSRRPKTRV | 25.5 ± 2.7 | 23.8 ± 1.8 | 4.86 ± 0.72 | 5.13 ± 0.67 | –
5 | MKLLHVFLLFLCFHLRFCKVTYTSQEDLVEKKCLAKKYTHLSCDKVFCQPWQRCIEGTCVCKLPYQCPKNGTAVCATNRRSFPTYCQQKSLECLHPGTKFLNNGTCTAEGKFSVSLKHGNTDSEGIVEVKLVDQDKTMFICKSSWSMREANVACLDLGFQQGADTQRRFKLSDLSINSTECLHVHCRGLETSLAECTFTKRRTMGYQDFADVVCYTQKADSPMDDFFQCVNGKYISQMKACDGINDCGDQSDELCCKACQGKGFHCKSGVCIPSQYQCNGEVDCITGEDEVGCAGFASVTQEETEILTADMDAERRRIKSLLPKLSCGVKNRMHIRRKRIVGGKRAQLGDLPWQVAIKDASGITCGGIYIGGCWILTAAHCLRASKTHRYQIWTTVVDWIHPDLKRIVIEYVDRIIFHENYNAGTYQNDIALIEMKKDGNKKDCELPRSIPACVPWSPYLFQPNDTCIVSGWGREKDNERVFSLQWGEVKLISNCSKFYGNRFYEKEMECAGTYDGSIDACKGDSGGPLVCMDANNVTYVWGVVSWGENCGKPEFPGVYTKVANYFDWISYHVGRPFISQYNV | – | – | – | – | percentage of EdU-negative ([1]; protein concentration 0.021 µM): 24.6 ± 0.98%; percentage of EdU-negative ([1]; protein concentration 0.21 µM): 27.3 ± 1.3%; percentage of EdU-negative ([2]; protein concentration 0.021 µM): 4.11 ± 0.1%; percentage of EdU-negative ([2]; protein concentration 0.21 µM): 4.288 ± 0.024%
6 | MAFRGWRPPPPPLLLLLLWVTGQAAPVAGLGSDAELQIERRFVPDECPRTVRSGDFVRYHYVGTFPDGQKFDSSYDRDSTFNVFVGKGQLITGMDQALVGMCVNERRFVKIPPKLAYGNEGVSGVIPPNSVLHFDVLLMDIWNSEDQVQIHTYFKPPSCPRTIQVSDFVRYHYNGTFLDGTLFDSSHNRMKTYDTYVGIGWLIPGMDKGLLGMCVGEKRIITIPPFLAYGEDGDGKDIPGQASLVFDVALLDLHNPKDSISIENKVVPENCERISQSGDFLRYHYNGTLLDGTLFDSSYSRNRTFDTYIGQGYVIPGMDEGLLGVCIGEKRRIVVPPHLGYGEEGRGNIPGSAVLVFDIHVIDFHNPSDSISITSHYKPPDCSVLSKKGDYLKYHYNASLLDGTLLDSTWNLGKTYNIVLGSGQVVLGMDMGLREMCVGEKRTVIIPPHLGYGEAGVDGEVPGSAVLVFDIELLELVAGLPEGYMFIWNGEVSPNLFEEIDKDGNGEVLLEEFSEYIHAQVASGKGKLAPGFDAELIVKNMFTNQDRNGDGKVTAEEFKLKDQEAKHDEL | 29.6 ± 1.2 | 28.6 ± 3 | 5.15 ± 0.31 | 25.4 ± 1.1 | –

Source: the supplement of paper PMC11316812
